This is an account of results in patent US20210017287A1 (published 2021).

Assay [1] has as its target T1, TNFRSF25-Fc fusion protein (UniProt Q93038 25-199, limits assumed, biotinylated in the capture ELISA (site not stated)).
T1 construct: also called TNFRSF25-Fc protein; biotinylated antigen protein; not shown: Fc part
T1 sequence (looked up): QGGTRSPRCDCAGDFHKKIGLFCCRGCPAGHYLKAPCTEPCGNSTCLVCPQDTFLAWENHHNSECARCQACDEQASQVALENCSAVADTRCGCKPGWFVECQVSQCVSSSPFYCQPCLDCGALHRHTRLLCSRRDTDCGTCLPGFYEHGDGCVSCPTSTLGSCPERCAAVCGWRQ
The assay is described as follows: binding ELISA of scFv clones on TNFRSF25-Fc (FIG. 10).

Assay [2] addresses T1, TNFRSF25-Fc fusion protein. The assay is described as follows: single point capture ELISA, scFv captured by anti-c-myc, biotinylated antigen. As to the method: (§1) Primary screening of the scFv library: The primary screen consisted of a single point ELISA (SPE) assay, which was carried out using periplasmic extract (PE) of bacteria grown in 96-well (deep well) plates. Briefly, this capture ELISA involved coating individual wells of a 96-well Maxisorp Immunoplate with anti-c-myc antibody in coating buffer (200 mM Na₂CO₃/NaHCO₃) at pH 9.2 overnight at 4° C. The next day, the plate was blocked with Casein for 1 hour at room temperature. scFv PE was then added to the plate and incubated at room temperature for 1 hour. After washing, biotinylated antigen protein was added to the well and the mixture was incubated for 1 hour at room temperature. This was followed by incubation with streptavidin-horseradish peroxidase (HRP) conjugate for 1 hour at room temperature. HRP activity was detected with tetra-methyl-benzidine (TMB) substrate, and the reaction was quenched with 2M HCl. Plates were read at 450 nm. […] The scFv protein concentration was determined by comparing the ELISA signals with signals generated by the reference scFv. The binding assay was repeated once more for all positive variants under normalized scFv concentrations in order to determine the relative binding affinity of the mutant scFv and the parental antibody. Selected scFv hits displaying improved binding were re-formulated to IgG1 and tested in a caspase-3 assay as described below.

Assay [3] concerns the target T1, TNFRSF25-Fc fusion protein. Description: capture ELISA of scFv, against W3072-z4C12-scFv. As to the method: as §1

Changes are numbered by the printed parent chain.

B1: 1F10 (scFv, V domains shown)
VH: EVQLVESGGGLSQPGNSLQLSCEASGFTFSNHDLNWVRQAPGKGLEWVAYISSASGLISYADAVRGRFTISRDNAKNSLFLQMNNLKSEDTAMYYCARDPAYTGLYALDFWGQGTQVTVSS
VL: QPVLTQSPSASASLSGSVKLTCTLSSELSNFTIVWYQQRPDKAPKYVMYLKSDGSHSKGDGIPDRFSGSSSGAHRYLSISNVQSEDDATYFCGAGYTLASQYGWVFGSGTKVTVL
notes: scFv; Frameworks and unchanged CDRs are those of the parental clone
For B1, the Bmax in assay [1] was found to be 1.73.

B2: W3072-z4C12-scFv (scFv, V domains shown)
VH: B1 VH with A101P, T103S
VL: B1 VL with N30S, F31Y, S100G
notes: scFv (captured by anti-c-myc antibody); also called WT; wild-type
For the molecule B2, the Bmax in assay [1] is 0.1.

B3: 42H8 (scFv, V domains shown)
VH: B1 VH with A101P, T103S
VL: B1 VL with N30Y, F31Y, S100G
As to B3, the OD450 in assay [2] came to 1.67 OD450.

B4: 42F9 (scFv, V domains shown)
VH: B1 VH with A101P, T103S
VL: B1 VL with N30F, F31Y, S100G
In the case of B4, the OD450 in assay [2] was 2.33 OD450.

B5: 43F11 (scFv, V domains shown)
VH: B1 VH with A101P, T103S
VL: B1 VL with N30S, S100G
Consider B5, for which, in assay [2], the OD450 is 1.6 OD450.

B6: 66B8 (scFv, V domains shown)
VH: B1 VH with A101P, T103S
VL: B1 VL with N30S, F31Y, S100N
As to B6, the OD450 in assay [2] came to 0.4 OD450.

B7: 3G4 (scFv, V domains shown)
VH: B1 VH
VL: B1 VL with N30G, S100R
notes: as for B1
B7 registered a Bmax in assay [1] of 1.53.

B8: 5A6 (scFv, V domains shown)
VH: B1 VH with A101P
VL: B1 VL with S100N
notes: as for B1
B8 had a Bmax in assay [1] of 1.89.

B9: 9A5 (scFv, V domains shown)
VH: B1 VH
VL: B1 VL with N30G, S100N
notes: as for B1
B9 returned a Bmax in assay [1] of 1.81.

B10: 2A5 (scFv, V domains shown)
VH: B1 VH
VL: B1 VL with A94M, S100N
notes: as for B1
In assay [1], B10 returned a Bmax of 1.28.

B11: 5E1 (scFv, V domains shown)
VH: B1 VH
VL: B1 VL with F31Y, A94M, S100N
notes: as for B1
Take B11: the Bmax in assay [1] was 1.32.

B12: 4B6 (scFv, V domains shown)
VH: B1 VH
VL: B1 VL with F31Y, S100N
notes: as for B1
B12: the Bmax in assay [1] was 1.26.

B13: 10B8 (scFv, V domains shown)
VH: B1 VH with T103S
VL: B1 VL with S100G
notes: as for B1
B13: in assay [1], the Bmax amounted to 1.49.

B14: 12F7 (scFv, V domains shown)
VH: B1 VH with G56Q, A101P, T103S
VL: B1 VL with N30S, F31Y, S100G
notes: scFv; Position 12 is a library position read from the clone ID
Take B14: the OD450 in assay [2] came to 0.85 OD450.

B15: 10C3 (scFv, V domains shown)
VH: B1 VH with A54D, A101P, T103S
VL: B1 VL with N30S, F31Y, S100G
notes: scFv
Turning to B15, the OD450 in assay [2] worked out at 0.7 OD450.

B16: 6G11 (scFv, V domains shown)
VH: B1 VH with A101P, T103S
VL: B1 VL with S100G
notes: as for B1
Molecule B16 registered a Bmax in assay [1] of 1.32.

B17: 9G2 (scFv, V domains shown)
VH: B1 VH
VL: B1 VL with N30W, F31Y, S100G
notes: as for B1
Molecule B17 came in with a Bmax in assay [1] of 1.04.

B18: 42G2 (scFv, V domains shown)
VH: B1 VH with A101P, T103S
VL: B1 VL with N30W, F31Y, S100G
notes: scFv
Molecule B18 came in with a Bmax in assay [1] of 0.447. In assay [2], this molecule registered an OD450 of 3.19 OD450. Besides, the “fold increase in ELISA signal” value in assay [3] was above 10 fold.
